The values below come from US7304127.

Where “and” joins values, the source holds several entries; their conditions need not be identical. Equal values may be shown once.

This assay addresses HIV-1LAI envelope gp120 labeled with radioactive iodine (HIV-1 LAI), P03377. Nature of the assay: 125I-gp120, peptide array.
FLFWAPYNIVLLLNTFQE (modifications not checked) [CCR5 245-262]: the counts minus background (counts per 20 min) was found to be 616.

Take SKTFSASHNVEATSMFQL (modifications not checked) [STRL33 325-342]: the counts minus background (counts per 20 min) is 1520 and 1240.

As for SEDNSKTFSASHNVEATS (modifications not checked) [STRL33 321-338], the counts minus background (counts per 20 min) is 524 and 434.

AVFALKARTVTFGVVTSV (modifications not checked) [CCR5 133-150]: the counts minus background (counts per 20 min) was determined as 63.

In the case of GVVTSVITWVVAVFASLP (modifications not checked) [CCR5 145-162], the counts minus background (counts per 20 min) was 69.

As to AVVHAVFALKARTVTFGV (modifications not checked) [CCR5 129-146], the counts minus background (counts per 20 min) was 34.

On to FWKNFQTLKIVILGLVLP (modifications not checked) [CCR5 189-206], for which the counts minus background (counts per 20 min) is 40.

For QKINVKQIAARLLPPLYS (modifications not checked) [CCR5 21-38], the counts minus background (counts per 20 min) came out at 20.

Turning to GVSHQWKSSEDNSKTFSA (modifications not checked) [STRL33 313-330], the counts minus background (counts per 20 min) is 208 and 306.

For the molecule KRHRAVRLIFTIMIVYFL (modifications not checked) [CCR5 229-246], the counts minus background (counts per 20 min) turned out to be 36.

Turning to AVRLIFTIMIVYFLFWAP (modifications not checked) [CCR5 233-250], the counts minus background (counts per 20 min) is 62.

Turning to AYLRACLNPVLYAFVSLK (modifications not checked) [STRL33 277-294], the counts minus background (counts per 20 min) is 1800 and 1850.

Consider PVLYAFVSLKFRKNFWKL (modifications not checked) [STRL33 285-302], for which the counts minus background (counts per 20 min) is 1860 and 2150.

Turning to KIVILGLVLPLLVMVICY (modifications not checked) [CCR5 197-214], the counts minus background (counts per 20 min) worked out at 65.

Turning to LLTIDRYLAVVHAVFALK (modifications not checked) [CCR5 121-138], the counts minus background (counts per 20 min) was determined as 31.

Regarding SQYQFWKNFQTLKIVILG (modifications not checked) [CCR5 185-202], the counts minus background (counts per 20 min) was 1570.

For the molecule ACLNPVLYAFVSLKFRKN (modifications not checked) [STRL33 281-298], the counts minus background (counts per 20 min) was 4170 and 4520.

Consider DRYLAVVHAVFALKARTV (modifications not checked) [CCR5 125-142], for which the counts minus background (counts per 20 min) is 62.

As to RNEKKRHRAVRLIFTIMI (modifications not checked) [CCR5 225-242], the counts minus background (counts per 20 min) was found to be 23.

For SEPCQKINVKQIAARLLP (modifications not checked) [CCR5 17-34], the counts minus background (counts per 20 min) is -44.

For SQKEGLHYTCSSHFPYSQ (modifications not checked) [CCR5 169-186], the counts minus background (counts per 20 min) was 304.

For HFPYSQYQFWKNFQTLKI (modifications not checked) [CCR5 181-198], the counts minus background (counts per 20 min) is 1010.

For VFASLPGIIFTRSQKEGL (modifications not checked) [CCR5 157-174], the counts minus background (counts per 20 min) is 54.

For the molecule TCSSHFPYSQYQFWKNFQ (modifications not checked) [CCR5 177-194], the counts minus background (counts per 20 min) worked out at 367.

Regarding TEAIAYLRACLNPVLYAF (modifications not checked) [STRL33 273-290], the counts minus background (counts per 20 min) is 604 and 480.

For the molecule APYNIVLLLNTFQEFFGL (modifications not checked) [CCR5 249-266], the counts minus background (counts per 20 min) is 1960.

For the molecule TVTFGVVTSVITWVVAVF (modifications not checked) [CCR5 141-158], the counts minus background (counts per 20 min) was -25.

For SVITWVVAVFASLPGIIF (modifications not checked) [CCR5 149-166], the counts minus background (counts per 20 min) amounted to 46.

Take LKFRKNFWKLVKDIGCLP (modifications not checked) [STRL33 293-310]: the counts minus background (counts per 20 min) was 920 and 958.

On to QWKSSEDNSKTFSASHNV (modifications not checked) [STRL33 317-334], for which the counts minus background (counts per 20 min) is 464 and 534.

For the molecule IVLLLNTFQEFFGLNNCS (modifications not checked) [CCR5 253-270], the counts minus background (counts per 20 min) was 2130.

VMVICYSGILKTLLRCRN (modifications not checked) [CCR5 209-226]: the counts minus background (counts per 20 min) is -8.

On to CYSGILKTLLRCRNEKKR (modifications not checked) [CCR5 213-230], for which the counts minus background (counts per 20 min) was determined as 70.

For SFHYTIMVTEAIAYLRAC (modifications not checked) [STRL33 265-282], the counts minus background (counts per 20 min) is 762 and 1030.

Take NYYTSEPCQKINVKQIAA (modifications not checked) [CCR5 13-30]: the counts minus background (counts per 20 min) is 6.

Regarding LPLLVMVICYSGILKTLL (modifications not checked) [CCR5 205-222], the counts minus background (counts per 20 min) was found to be 68.

On to LKARTVTFGVVTSVITWV (modifications not checked) [CCR5 137-154], for which the counts minus background (counts per 20 min) was found to be 74.

Consider TIMVTEAIAYLRACLNPV (modifications not checked) [STRL33 269-286], for which the counts minus background (counts per 20 min) is 140 and 272.

On to GLHYTCSSHFPYSQYQFW (modifications not checked) [CCR5 173-190], for which the counts minus background (counts per 20 min) stood at 301.

As for WVVAVFASLPGIIFTRSQ (modifications not checked) [CCR5 153-170], the counts minus background (counts per 20 min) was 87.

On to ILKTLLRCRNEKKRHRAV (modifications not checked) [CCR5 217-234], for which the counts minus background (counts per 20 min) was determined as 19.

Regarding FQTLKIVILGLVLPLLVM (modifications not checked) [CCR5 193-210], the counts minus background (counts per 20 min) is 45.

With AFVSLKFRKNFWKLVKDI (modifications not checked) [STRL33 289-306], the counts minus background (counts per 20 min) was 808 and 1040.
